From patent US20250276077A1 (IMMUNOME, published 2025)
Substitutions are numbered along the chain they refer to.

Columns and labels:
[1] = target: T1, Human EphA2 (ephrin receptor A2) on cells (human, UniProt P29317 25-976); assay: cell-based or functional assay
[2] = target: T1, Human EphA2 (ephrin receptor A2) on …; assay: cell-based or functional assay; remark: listed apart in the source
[3] = target: T2, hEphA2-FN12-(327-534) - Fc (human, UniProt P29317 327-534); assay: SPR Biacore, 25 C; hEphA2-Fc fusion captured by anti-human Fc, Fab analyte
T2 construct: also called FN1-FN2 domains Fc fusion; not shown: human Fc, C-terminal to the EphA2 part
T2 sequence (P29317 327-534): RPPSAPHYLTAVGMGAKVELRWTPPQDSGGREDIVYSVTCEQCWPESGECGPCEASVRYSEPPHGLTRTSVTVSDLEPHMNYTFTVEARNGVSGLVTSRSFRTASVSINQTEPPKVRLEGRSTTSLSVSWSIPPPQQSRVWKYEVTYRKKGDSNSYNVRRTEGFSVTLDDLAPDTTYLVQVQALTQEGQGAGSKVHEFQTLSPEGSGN
Protocol: (§1) The hEphA2-Fc fusions were captured with an anti-human Fe immobilized to a CM5 chip.
(§2) Biacore® assays were conducted at 25° C. using HBS-EP+ buffer (0.01 M HEPES pH 7.4, 0.15 M NaCl, 3 mM EDTA, 0.005% v/v Surfactant P20). Data was double-reference subtracted and data was analyzed using 1:1 Langmuir binding model and steady-state model in Biacore Evaluation software.
(§3) Binding to hEphA2-ECD-Fc tested using 100, 300, and 900 nM analyte.

[4] = target: T3, hEphA2-FN2-(437-534) - Fc (human, UniProt P29317 437-534); assay: as above
T3 construct: also called FN2 domain Fc fusion; not shown: human Fc, C-terminal to the EphA2 part
T3 sequence (P29317 437-534): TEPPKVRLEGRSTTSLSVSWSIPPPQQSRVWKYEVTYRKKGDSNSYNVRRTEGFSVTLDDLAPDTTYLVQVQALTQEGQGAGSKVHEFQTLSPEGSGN
Protocol: as §1, §2, §3

hEphA2-clv385-534-Fc = target: T4, hEphA2-clv385-534-Fc (human, UniProt P29317 385-534); assay: as above
T4 construct: Recombinant fragment representing a cleavage form; not shown: human Fc, C-terminal to the EphA2 part
T4 sequence (P29317 385-534): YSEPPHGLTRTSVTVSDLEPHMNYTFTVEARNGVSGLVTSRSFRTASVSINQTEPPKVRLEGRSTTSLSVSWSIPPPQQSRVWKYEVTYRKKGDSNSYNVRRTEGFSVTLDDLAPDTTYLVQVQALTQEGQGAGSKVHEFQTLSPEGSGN
Protocol: as §1, §2, §3

hEphA2-clv395-534-Fc = target: T5, hEphA2-clv395-534-Fc (human, UniProt P29317 395-534); assay: as above
T5 construct: Recombinant fragment representing a cleavage form; not shown: human Fc, C-terminal to the EphA2 part
T5 sequence (P29317 395-534): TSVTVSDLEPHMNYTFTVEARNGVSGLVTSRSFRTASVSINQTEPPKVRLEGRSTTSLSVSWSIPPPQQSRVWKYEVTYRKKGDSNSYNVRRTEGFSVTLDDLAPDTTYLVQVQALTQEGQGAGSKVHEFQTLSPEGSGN
Protocol: as §1, §2, §3

hEphA2-clv432-534-Fc = target: T6, hEphA2-clv432-534-Fc (human, UniProt P29317 432-534); assay: as above
T6 construct: Recombinant fragment representing a cleavage form; not shown: human Fc, C-terminal to the EphA2 part
T6 sequence (P29317 432-534): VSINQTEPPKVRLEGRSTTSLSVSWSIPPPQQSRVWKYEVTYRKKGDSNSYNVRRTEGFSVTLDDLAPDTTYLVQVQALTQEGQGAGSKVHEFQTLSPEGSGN
Protocol: as §1, §2, §3

hEphA2-clv435-534-Fc = target: T7, hEphA2-clv435-534-Fc (human, UniProt P29317 435-534); assay: as above
T7 construct: Recombinant fragment representing a cleavage form; not shown: human Fc, C-terminal to the EphA2 part
T7 sequence (P29317 435-534): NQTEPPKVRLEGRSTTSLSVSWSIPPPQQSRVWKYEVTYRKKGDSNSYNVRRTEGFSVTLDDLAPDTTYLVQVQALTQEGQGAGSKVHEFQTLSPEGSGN
Protocol: as §1, §2, §3

[5] = target: T8, C-terminally His-tagged hEphA2-FN2 (Thr437-Asn534+His tag) (human, UniProt P29317 437-534); assay: SPR Biacore T200, 25 C; mIgG2a as immobilized ligand, hEphA2-FN2-His analyte
T8 construct: also called FN2 domain of hEphA2
T8 sequence (P29317 437-534 limits assumed): as the sequence (P29317 437-534) above
Protocol: Binding of EphA2 antibodies to the FN2 domain of hEphA2 was measured using the Biacore® T200 SPR system. Biacore® assays were conducted at 25° C. using HBS-EP+ buffer (0.01 M HEPES pH 7.4, 0.15 M NaCl, 3 mM EDTA, 0.005% v/v Surfactant P20) using the FN2 domain as the analyte with the antibodies in mIgG2a format as the immobilized ligand. Data was analyzed using 1:1 Langmuir binding model and steady-state model in Biacore Evaluation software.
C-terminally His-tagged human EphA2 FN2 domain (Thr437-Asn534+His tag) was used as the analyte. The analyte was associated for 120 seconds and dissociated for 100 seconds or 300 seconds at 30 μL/min.

[6] = target: T8, C-terminally His-tagged hEphA2-FN2 …; assay: SPR Biacore T200, 25 C; mIgG2a captured by anti-mouse Fc, hEphA2-FN2-His analyte; steady-state monovalent KD
Protocol: Binding of antibodies to the FN2 domain of hEphA2 was measured using the Biacore® T200 SPR system at 25° C. using HBS-EP+ buffer (0.01 M HEPES pH 7.4, 0.15 M NaCl, 3 mM EDTA, 0.005% v/v Surfactant P20). Antibodies in mIgG2a format were captured at levels between 475-715 RU via an anti-mouse Fc antibody immobilized to a CM5 chip. Binding was assessed using a titration of C-terminally His-tagged hEphA2-FN2 (Thr437-Asn534+His tag) associated for 30 s or 75 s at 30 μL/min. Data was double-reference subtracted using both a surface without captured antibody and from injections of HBS-EP+ buffer. The equilibrium response was measured at 4 seconds before the end of association with a window of 5 seconds and fit using the Biacore T200 Evaluation Software 3.1 with the Steady State Affinity Model.

[7] = target: T1, Human EphA2 (ephrin receptor A2) on …; assay: cell-based or functional assay; remark: listed apart in the source
[8] = target: T1, Human EphA2 (ephrin receptor A2) on …; assay: flow cytometry on A549 cells
Protocol: (§4) Surface binding of the antibodies to in vitro grown cell lines was assessed by flow cytometry. Tumor cells were detached from their culture plate using Versene and counted. Cells were staining in BSA-containing buffer with primary antibody for 30 minutes at 4° C. with shaking. Following, cells were washed and stained with secondary PE-labeled antibody for 30 minutes at 4° C. with shaking. Before analysis on an Intellicyt iQue3 scanner, cells were counterstained with DAPI. MedFI values from live, single cells was expressed as fold over isotype control.

[9] = target: T1, Human EphA2 (ephrin receptor A2) on …; assay: cell-based or functional assay; remark: listed apart in the source
[10] = target: T9, mouse EphA2 on mouse tumour cells (mouse, UniProt Q03145 26-977); assay: cell-based or functional assay
T9 sequence (Q03145 26-977): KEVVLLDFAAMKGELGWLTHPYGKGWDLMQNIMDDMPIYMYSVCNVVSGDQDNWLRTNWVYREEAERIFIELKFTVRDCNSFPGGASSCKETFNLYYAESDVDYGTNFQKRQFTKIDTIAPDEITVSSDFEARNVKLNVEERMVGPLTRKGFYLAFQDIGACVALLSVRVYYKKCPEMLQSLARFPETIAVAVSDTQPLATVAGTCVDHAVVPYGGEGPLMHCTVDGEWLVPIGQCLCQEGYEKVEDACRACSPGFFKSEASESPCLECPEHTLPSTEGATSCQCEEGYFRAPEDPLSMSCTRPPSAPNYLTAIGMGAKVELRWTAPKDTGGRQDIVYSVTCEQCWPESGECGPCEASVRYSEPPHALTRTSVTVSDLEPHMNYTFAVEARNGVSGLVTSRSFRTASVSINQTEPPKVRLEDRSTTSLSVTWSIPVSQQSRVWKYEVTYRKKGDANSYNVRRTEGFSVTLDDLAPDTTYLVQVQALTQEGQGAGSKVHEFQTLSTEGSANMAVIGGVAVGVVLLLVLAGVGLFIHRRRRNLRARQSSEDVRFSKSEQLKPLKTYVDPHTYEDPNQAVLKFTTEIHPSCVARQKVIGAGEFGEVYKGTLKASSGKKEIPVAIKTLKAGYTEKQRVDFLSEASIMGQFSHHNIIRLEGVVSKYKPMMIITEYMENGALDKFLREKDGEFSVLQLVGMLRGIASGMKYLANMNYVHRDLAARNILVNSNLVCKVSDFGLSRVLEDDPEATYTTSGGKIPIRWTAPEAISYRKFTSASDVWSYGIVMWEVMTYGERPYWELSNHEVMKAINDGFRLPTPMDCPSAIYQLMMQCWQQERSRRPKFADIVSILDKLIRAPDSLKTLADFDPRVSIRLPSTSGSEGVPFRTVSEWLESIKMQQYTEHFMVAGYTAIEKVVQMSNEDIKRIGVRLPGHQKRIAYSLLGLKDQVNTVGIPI

[11] = target: T10, EphA4 (homologous receptor, screening at Integral Molecular) (human, UniProt P54764 20-986); assay: membrane protein screening on cells
T10 construct: whole, on cells
T10 sequence (P54764 20-986): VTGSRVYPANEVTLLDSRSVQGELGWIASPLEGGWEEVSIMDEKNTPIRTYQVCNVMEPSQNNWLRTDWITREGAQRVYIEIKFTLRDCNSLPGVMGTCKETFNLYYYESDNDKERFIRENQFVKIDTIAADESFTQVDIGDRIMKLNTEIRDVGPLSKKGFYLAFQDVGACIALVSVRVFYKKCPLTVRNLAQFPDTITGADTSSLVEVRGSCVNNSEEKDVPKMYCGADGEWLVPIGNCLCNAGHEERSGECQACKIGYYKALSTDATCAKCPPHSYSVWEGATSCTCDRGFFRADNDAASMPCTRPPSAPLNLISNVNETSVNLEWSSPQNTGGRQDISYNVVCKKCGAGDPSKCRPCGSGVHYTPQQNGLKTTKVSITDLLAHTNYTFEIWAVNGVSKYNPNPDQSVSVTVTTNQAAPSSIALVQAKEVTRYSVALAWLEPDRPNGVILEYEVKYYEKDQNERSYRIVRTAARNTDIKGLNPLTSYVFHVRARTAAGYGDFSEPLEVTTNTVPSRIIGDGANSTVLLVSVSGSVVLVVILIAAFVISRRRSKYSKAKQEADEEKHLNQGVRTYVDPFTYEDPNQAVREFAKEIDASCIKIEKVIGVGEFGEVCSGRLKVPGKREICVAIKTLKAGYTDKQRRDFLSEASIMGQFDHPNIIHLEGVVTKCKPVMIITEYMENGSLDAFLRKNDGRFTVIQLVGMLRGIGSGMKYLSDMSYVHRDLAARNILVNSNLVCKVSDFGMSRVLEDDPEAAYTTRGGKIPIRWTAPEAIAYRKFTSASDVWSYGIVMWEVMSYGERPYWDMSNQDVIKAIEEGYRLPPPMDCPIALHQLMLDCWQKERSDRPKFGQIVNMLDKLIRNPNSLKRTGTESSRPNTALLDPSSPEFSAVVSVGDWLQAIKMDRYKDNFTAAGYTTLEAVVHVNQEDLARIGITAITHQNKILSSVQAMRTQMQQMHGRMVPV

[12] = target: T9, mouse EphA2 on mouse tumour cells; assay: flow cytometry, CT26 cells (in vitro)
Protocol: as §4

[13] = target: T11, EphA4_ECD (aa 23-546), Full ECD, displayed on yeast (human, UniProt P54764 23-546); assay: yeast surface display, flow cytometry titration
T11 construct: also called EphA4 full ECD
T11 sequence (P54764 23-546 limits assumed): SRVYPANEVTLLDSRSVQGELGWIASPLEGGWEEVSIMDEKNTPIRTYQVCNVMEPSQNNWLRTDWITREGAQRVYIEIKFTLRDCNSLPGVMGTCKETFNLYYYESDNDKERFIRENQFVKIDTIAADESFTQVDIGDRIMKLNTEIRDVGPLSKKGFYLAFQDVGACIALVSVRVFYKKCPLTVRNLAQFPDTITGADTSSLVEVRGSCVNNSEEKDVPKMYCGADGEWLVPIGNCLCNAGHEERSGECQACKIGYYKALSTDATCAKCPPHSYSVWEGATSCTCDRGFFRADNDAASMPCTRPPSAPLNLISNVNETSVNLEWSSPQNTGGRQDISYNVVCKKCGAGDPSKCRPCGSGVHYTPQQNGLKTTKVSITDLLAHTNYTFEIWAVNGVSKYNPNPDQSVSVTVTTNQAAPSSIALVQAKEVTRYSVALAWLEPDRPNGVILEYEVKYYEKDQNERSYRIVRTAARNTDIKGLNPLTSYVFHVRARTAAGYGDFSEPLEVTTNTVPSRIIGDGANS

FcGR1 = target: T12, FcGR1 (human, UniProt P12314 16-374); assay: flow cytometry, 6,000 human membrane proteins expressed on HEK293 cells
T12 construct: whole, on cells
T12 sequence (P12314 16-374): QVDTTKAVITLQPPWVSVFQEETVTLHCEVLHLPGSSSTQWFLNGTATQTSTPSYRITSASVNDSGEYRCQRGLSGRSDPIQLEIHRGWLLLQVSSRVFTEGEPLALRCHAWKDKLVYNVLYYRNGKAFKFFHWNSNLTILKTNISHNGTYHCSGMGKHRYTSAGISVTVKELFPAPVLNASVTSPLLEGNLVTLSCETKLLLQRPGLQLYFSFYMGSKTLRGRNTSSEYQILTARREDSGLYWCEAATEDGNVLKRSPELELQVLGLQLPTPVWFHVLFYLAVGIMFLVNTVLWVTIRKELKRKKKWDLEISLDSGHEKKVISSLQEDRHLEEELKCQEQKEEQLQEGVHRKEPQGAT

[14] = target: human 4-1BB on reporter cells (human, UniProt Q07011 24-255); assay: cell-based or functional assay
Sequence of human 4-1BB on reporter cells (Q07011 24-255): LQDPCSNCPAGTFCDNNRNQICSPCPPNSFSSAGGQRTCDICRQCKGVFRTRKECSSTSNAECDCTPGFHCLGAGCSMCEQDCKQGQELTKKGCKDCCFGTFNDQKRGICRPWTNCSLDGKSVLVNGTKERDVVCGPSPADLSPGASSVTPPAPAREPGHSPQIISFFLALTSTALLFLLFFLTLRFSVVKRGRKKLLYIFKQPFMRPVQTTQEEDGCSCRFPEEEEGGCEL

T1 sequence (P29317 25-976): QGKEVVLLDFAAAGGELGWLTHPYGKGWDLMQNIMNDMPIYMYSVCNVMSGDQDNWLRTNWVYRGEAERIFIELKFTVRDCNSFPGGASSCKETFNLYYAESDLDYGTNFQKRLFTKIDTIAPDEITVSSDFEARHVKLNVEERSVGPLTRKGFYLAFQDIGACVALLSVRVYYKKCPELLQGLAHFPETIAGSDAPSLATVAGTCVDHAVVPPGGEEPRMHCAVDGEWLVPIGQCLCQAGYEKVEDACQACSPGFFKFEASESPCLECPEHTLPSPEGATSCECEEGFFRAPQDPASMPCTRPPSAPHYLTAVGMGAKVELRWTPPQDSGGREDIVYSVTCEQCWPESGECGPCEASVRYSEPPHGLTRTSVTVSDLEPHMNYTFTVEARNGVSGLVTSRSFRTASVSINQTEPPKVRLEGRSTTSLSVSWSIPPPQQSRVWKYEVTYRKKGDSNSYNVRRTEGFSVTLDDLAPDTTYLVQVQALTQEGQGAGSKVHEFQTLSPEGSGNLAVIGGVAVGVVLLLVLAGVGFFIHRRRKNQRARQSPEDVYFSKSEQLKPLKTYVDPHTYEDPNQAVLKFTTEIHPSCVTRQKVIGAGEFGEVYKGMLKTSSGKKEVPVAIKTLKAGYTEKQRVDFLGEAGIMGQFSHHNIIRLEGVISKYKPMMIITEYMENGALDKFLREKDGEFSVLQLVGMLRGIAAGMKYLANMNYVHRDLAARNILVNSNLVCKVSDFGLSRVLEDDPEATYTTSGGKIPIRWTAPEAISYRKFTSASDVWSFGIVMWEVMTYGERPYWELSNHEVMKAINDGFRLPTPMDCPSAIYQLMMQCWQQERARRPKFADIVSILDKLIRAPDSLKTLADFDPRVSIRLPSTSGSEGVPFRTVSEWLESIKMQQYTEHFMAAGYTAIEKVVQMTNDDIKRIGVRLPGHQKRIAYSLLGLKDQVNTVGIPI

B1: AB-010699 (antibody, V domains shown)
VH: QVQLQQWGAGLLKPSETLSLTCAVYGGSFSGYYWSWIRQPPGKGLEWIGEINHRGSINYNNYNPSLKSRVTISVDTSKNQFSLKLSSVTAADTAVYYCAKPLRPHCINGVCYSGDAFDIWGQGTMVTVAS
VL: SYVLTQPPSVSVAPGQTARITCGGNNIGYKNVHWYQQKPGQAPVLVVYDDSDRPSGIPERFSGSNSGNTATLTISRVEAGDEADYYCQVWDHSSDHVVFGGGTKLTVL
ADCC - EC50 (nM), Trial 1, A549 [1]: ~0.014 nM
ADCC - EC50 (nM), Trial 2, A549 [1]: 0.0058 nM
EC50 (read off the curve), EphA2 pY588 phosphorylation, soluble agonist titration [2]: ~3e-09 M

B2: AB-010699 human Fab fragment (Fab, V domains shown)
VH: B1 VH
VL: B1 VL
notes: Human Fab format
Kd [3]: 8.6 nM
koff [3]: 0.043 s⁻¹
kon [3]: 5e+06 M⁻¹ s⁻¹
Kd [4]: 8.6 nM
koff [4]: 0.085 s⁻¹
kon [4]: 1e+07 M⁻¹ s⁻¹
Kd (hEphA2-clv385-534-Fc): 12 nM
koff (hEphA2-clv385-534-Fc): 0.072 s⁻¹
kon (hEphA2-clv385-534-Fc): 6.05e+06 M⁻¹ s⁻¹
Kd (hEphA2-clv395-534-Fc): 12 nM
koff (hEphA2-clv395-534-Fc): 0.07 s⁻¹
kon (hEphA2-clv395-534-Fc): 5.72e+06 M⁻¹ s⁻¹
Kd (hEphA2-clv432-534-Fc): 9.6 nM
koff (hEphA2-clv432-534-Fc): 0.075 s⁻¹
kon (hEphA2-clv432-534-Fc): 7.78e+06 M⁻¹ s⁻¹
Kd (hEphA2-clv435-534-Fc): 9.3 nM
koff (hEphA2-clv435-534-Fc): 0.078 s⁻¹
kon (hEphA2-clv435-534-Fc): 8.42e+06 M⁻¹ s⁻¹

B3: AB-010699 (mouse IgG2a format) (antibody, V domains shown)
VH: B1 VH
VL: B1 VL
notes: tested in mIgG2a format
Kd [5]: 19 nM
koff [5]: 0.075 s⁻¹
kon [5]: 3.9e+06 M⁻¹ s⁻¹
Kd [6]: 18.9 nM

B4: AB-009815 (antibody, mouse IgG2a, V domains shown)
VH: B1 VH with G31D, I51V, S86T, I107T
VL: B1 VL with Y29S, R60Q, H92S, V97L
ADCC Delta, A549 cells [7]: 59.8
ADCC EC50 (nM), A549 cells [7]: 10.4 nM
EC50 [8]: 5.5 nM
Flow Delta [8]: 745000
EC50 (read off the curve), ADC activity [9]: ~2 nM

B5: AB-008873 (antibody)
heavy: QVQLQQWGAGLLKPSETLSLTCAVYGGSFSDYYWSWIRQPPGKGLEWIGEVNHRGSINYNNYNPSLKSRVTISVDPSKNQFSLKLTSVTAADTAVYYCAKPLRPHCTNGVCYSGDAFDIWGQGTMVTVASAKTTAPSVYPLAPVCGDTTGSSVTLGCLVKGYFPEPVTLTWNSGSLSSGVHTFPAVLQSDLYTLSSSVTVTSSTWPSQSITCNVAHPASSTKVDKKIEPRGPTIKPCPPCKCPAPNLLGGPSVFIFPPKIKDVLMISLSPIVTCVVVDVSEDDPDVQISWFVNNVEVHTAQTQTHREDYNSTLRVVSALPIQHQDWMSGKEFKCKVNNKDLPAPIERTISKPKGSVRAPQVYVLPPPEEEMTKKQVTLTCMVTDFMPEDIYVEWTNNGKTELNYKNTEPVLDSDGSYFMYSKLRVEKKNWVERNSYSCSVVHEGLHNHHTTKSFSRTPG
light: SYVLTQPPSVSVAPGQTARITCGGNNIGSKNVHWYQQKPGQAPVLVVYDDSDRPSGIPEQFSGSNSGNTATLTISRVEAGDEADYYCQVWDSSSDHLVFGGGTKLTVLGQPKSSPSVTLFPPSSEELETNKATLVCTITDFYPGVVTVDWKVDGTPVTQGMETTQPSKQSNNKYMASSYLTLTARAWERHSSYSCQVTHEGHTVEKSLSRADCS
ADCC EC50 (nM), EMT6 cells [10]: > 100 nM
binding result [11]: no binding
fold (MedFI over isotype control) [12]: 16 fold
binding result [13]: no binding (tested: about 300 nM)
binding result (FcGR1): binds

B6: Urelumab (AB-009811) (antibody, V domains shown)
VH: QVQLQQWGAGLLKPSETLSLTCAVYGGSFSGYYWSWIRQSPEKGLEWIGEINHGGYVTYNPSLESRVTISVDTSKNQFSLKLSSVTAADTAVYYCARDYGPGNYDWYFDLWGRGTLVTVSS
VL: EIVLTQSPATLSLSPGERATLSCRASQSVSSYLAWYQQKPGQAPRLLIYDASNRATGIPARFSGSGSGTDFTLTISSLEPEDFAVYYCQQRSNWPPALTFGGGTKVEIK
EC50 (read off the curve), 4-1BB reporter activation with PC3 [14]: ~0.3 nM
